Laboratory results taken from patent US20210230600, “NUCLEIC ACID-DRUG COMPLEX AND USE THEREOF” (Industrial Technology Research Institute, published 2021).

Experiments:
Conditions in all cases: tags: HEK-Blue mouse TLR9 reporter cells, InvivoGen
TLR9 [1] = molecular target: T1, TLR9 (Mus musculus, UniProt Q9EQU3 Q9EQU3:26-1032); assay: cell_activity; SEAP reporter activation, 37 C; 2.1 nM in FIG. 5 experiment
T1 sequence: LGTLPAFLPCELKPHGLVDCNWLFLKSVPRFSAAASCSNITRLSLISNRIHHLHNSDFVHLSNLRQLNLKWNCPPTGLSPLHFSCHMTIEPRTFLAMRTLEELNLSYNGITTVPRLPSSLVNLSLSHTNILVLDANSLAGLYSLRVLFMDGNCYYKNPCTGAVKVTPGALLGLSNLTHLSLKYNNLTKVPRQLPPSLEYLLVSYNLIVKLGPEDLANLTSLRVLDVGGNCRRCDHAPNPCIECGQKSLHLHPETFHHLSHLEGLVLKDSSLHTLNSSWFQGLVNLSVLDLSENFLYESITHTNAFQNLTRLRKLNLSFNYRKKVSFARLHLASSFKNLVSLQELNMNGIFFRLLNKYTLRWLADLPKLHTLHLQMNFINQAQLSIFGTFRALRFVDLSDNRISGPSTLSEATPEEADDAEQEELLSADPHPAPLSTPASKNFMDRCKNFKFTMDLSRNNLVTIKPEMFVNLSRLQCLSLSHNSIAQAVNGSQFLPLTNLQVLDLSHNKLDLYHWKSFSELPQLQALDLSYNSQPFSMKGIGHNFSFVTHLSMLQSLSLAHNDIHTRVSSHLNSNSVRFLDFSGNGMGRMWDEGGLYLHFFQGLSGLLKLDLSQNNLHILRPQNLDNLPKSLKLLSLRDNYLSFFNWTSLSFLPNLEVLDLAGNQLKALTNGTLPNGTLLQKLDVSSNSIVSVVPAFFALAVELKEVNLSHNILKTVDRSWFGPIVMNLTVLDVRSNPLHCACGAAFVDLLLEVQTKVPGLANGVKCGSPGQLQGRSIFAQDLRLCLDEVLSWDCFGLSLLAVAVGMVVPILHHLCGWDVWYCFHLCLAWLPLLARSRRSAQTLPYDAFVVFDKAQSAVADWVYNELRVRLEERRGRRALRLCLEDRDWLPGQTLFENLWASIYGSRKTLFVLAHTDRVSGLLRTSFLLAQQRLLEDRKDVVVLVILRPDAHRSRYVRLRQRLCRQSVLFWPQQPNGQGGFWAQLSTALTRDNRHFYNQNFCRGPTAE
Description: (§1) HEK-Blue cells expressing mouse TLR9 (InvivoGen) were cultured in a complete DMEM medium (Dulbecco's modified Eagle's medium), which was supplemented with 100 μg/ml Normocin, 30 μg/ml Blasticidin, and 100 μg/ml Zeocin (all InvivoGen). HEK-Blue cells contained a secreted alkaline phosphatase (SEAP) reporting system, which produces colorimetric changes after interacting with TLR9.
(§2) HEK-Blue Detection mixture (cell culture medium for SEAP detection, InvivoGen) is used to detect the presence of SEAP, which is produced by stimulation of a TLR9 ligand through NF-κB activation. Detection mixture contained nutrients for cell growth and color substrate, whose color will change when it is hydrolyzed by SEAP. When HEK 293 cells expressing mouse TLR9 (InvivoGen) reached 60-80% confluency, they were collected, centrifuged and resuspended in Detection mixture. Cells (72,000) were seeded in each well of a 96-well plate (180 μl). The cells were then treated in combination with 20 μl PBS (unstimulated; as a negative control group), “CpG-L0-PS” (as a positive control group) or nucleic acid-drug complex samples of varying concentrations in PBS in duplicate wells, and incubated for 24 hours at 37° C. in 5% CO₂. The plate was read spectrophotometrically by using a multimode plate reader (Tecan, Infinite™ M200 PRO, Männedorf, Switzerland) at a wavelength of 620 nm to 655 nm.

TLR9 [2] = molecular target: T1, TLR9; assay: cell_activity; SEAP reporter activation, 37 C; 5.5 nM in FIG. 5 experiment
Description: as §1, §2

TLR9 [3] = molecular target: T1, TLR9; assay: cell_activity; SEAP reporter activation, 37 C
Description: as §1, §2

TLR9 [4] = molecular target: T1, TLR9; assay: cell_activity; SEAP reporter activation, 37 C; 1.3 nM in FIG. 5 experiment
Description: as §1, §2

TLR9 [5] = molecular target: T1, TLR9; assay: cell_activity; SEAP reporter activation, 37 C; remark: listed apart in the source
Description: as §1, §2
The experimental content is substantially the same as that of FIG. 4. The sample “CpG-L0-PS” in FIG. 5 corresponds to SEQ ID NO: 10 (which was not connected with anti-PD-L1 aptamer), and all phosphodiester bonds in the CpG oligonucleotide sequence were modified to phosphorothioate bonds.

TCGAACGTTCGAACGTTCGAACGTTCGAAT (ssDNA, PS at all linkages) [CpG-L0-PS]
EC50 (TLR9 [1]): 2.09 nM

B1: ApDC5-PS (ssDNA)
DNA: TCGAACGTTCGAACGTTCGAACGTTCGAATCACATCAACTCATTGATAGACAATGCGTCC
modifications: PS at all linkages of the CpG part
EC50 (TLR9 [2]): 2.48 nM

B2: ApDC5-7PS (ssDNA)
DNA: B1 DNA
modifications: PS at part of the linkages of the CpG part
EC50 (TLR9 [3]): 72.2 nM

B3: PDL1-CpG30-PS (ssDNA)
DNA: CACATCAACTCATTGATAGACAATGCGTCCTCGAACGTTCGAACGTTCGAACGTTCGAAT
modifications: PS at all linkages of the CpG part
EC50 (TLR9 [3]): 2.36 nM

B4: PDL1-CpG29-9PS (ssDNA)
DNA: CACATCAACTCATTGATAGACAATGCGTCCTTCGAACGTTCGAACGTTCGAACGTTCGAA
modifications: PS at part of the linkages of the CpG part
EC50 (TLR9 [3]): 149 nM

B5: ApDC-A21B (ssDNA)
DNA: TCGAACGTTCGAACGACTCATTGATAGACAATGCGTTTCGAACGTTCGAAT
modifications: PS at all linkages of the CpG part
EC50 (TLR9 [4]): 0.77 nM

B6: ApDC-A21A (ssDNA)
DNA: TCGAACGTTCGAACGACTCATTGATAGACAATGCGTTCGAACGTTCGAACG
modifications: PS at all linkages of the CpG part
EC50 (TLR9 [5]): 0.6 nM

TCGAACGTTCGAATACTCATTGATAGACAATGCGTTTCGAACGTTCGAAT (ssDNA, PS at all linkages of the CpG part) [ApDC-B21B]
EC50 (TLR9 [5]): 0.6 nM

B7: ApDC-A33B (ssDNA)
DNA: TTTCGAACGTTCGAACGCCACATCAACTCATTGATAGACAATGCGTCCACCGTTCGAACGTTCGATT
modifications: PS at part of the linkages of the CpG part
EC50 (TLR9 [5]): 16400 nM
